Reference: patent US20030021792A1

Legend:
[1] = molecular target: rat MadCam-1 (rat) (UniProt O70540); assay: Europium-labelled antibody injected in rat, time-resolved fluorescence of pancreas homogenate
[2] = molecular target: rat MadCam-1 (rat) (UniProt O70540); assay: Europium-labelled antibody injected in rat, time-resolved fluorescence of small intestine homogenate
[3] = molecular target: rat dipeptidyl peptidase IV (rat) (UniProt P14740); assay: Europium-labelled antibody injected in rat, time-resolved fluorescence of lung homogenate
[4] = molecular target: rat dipeptidyl peptidase IV (rat) (UniProt P14740); assay: 125I-labelled antibody injected in rat, scintigraphy of tissues

Sequence of UniProt P14740 (P14740 whole entry R38A/Q470G): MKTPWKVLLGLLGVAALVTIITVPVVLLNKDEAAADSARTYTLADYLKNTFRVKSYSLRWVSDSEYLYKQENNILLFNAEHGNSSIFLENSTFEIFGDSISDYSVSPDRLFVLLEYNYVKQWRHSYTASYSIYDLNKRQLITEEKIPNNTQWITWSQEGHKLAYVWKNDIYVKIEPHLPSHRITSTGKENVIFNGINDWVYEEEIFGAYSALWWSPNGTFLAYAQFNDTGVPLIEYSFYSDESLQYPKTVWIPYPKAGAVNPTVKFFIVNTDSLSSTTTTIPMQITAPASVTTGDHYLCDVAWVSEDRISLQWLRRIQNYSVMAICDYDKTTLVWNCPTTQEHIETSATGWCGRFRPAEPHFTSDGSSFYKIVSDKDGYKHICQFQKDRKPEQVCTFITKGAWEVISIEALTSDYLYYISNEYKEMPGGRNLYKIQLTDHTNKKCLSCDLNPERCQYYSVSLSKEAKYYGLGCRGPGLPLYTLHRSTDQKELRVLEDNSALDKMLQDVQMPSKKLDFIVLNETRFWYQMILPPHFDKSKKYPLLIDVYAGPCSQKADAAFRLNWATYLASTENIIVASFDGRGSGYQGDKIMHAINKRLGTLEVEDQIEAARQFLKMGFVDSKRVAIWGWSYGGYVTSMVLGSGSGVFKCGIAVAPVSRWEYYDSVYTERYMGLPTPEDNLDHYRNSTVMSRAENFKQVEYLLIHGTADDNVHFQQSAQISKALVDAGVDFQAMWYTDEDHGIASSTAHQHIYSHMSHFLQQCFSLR
Sequence of UniProt O70540 (O70540 20-394 limits assumed): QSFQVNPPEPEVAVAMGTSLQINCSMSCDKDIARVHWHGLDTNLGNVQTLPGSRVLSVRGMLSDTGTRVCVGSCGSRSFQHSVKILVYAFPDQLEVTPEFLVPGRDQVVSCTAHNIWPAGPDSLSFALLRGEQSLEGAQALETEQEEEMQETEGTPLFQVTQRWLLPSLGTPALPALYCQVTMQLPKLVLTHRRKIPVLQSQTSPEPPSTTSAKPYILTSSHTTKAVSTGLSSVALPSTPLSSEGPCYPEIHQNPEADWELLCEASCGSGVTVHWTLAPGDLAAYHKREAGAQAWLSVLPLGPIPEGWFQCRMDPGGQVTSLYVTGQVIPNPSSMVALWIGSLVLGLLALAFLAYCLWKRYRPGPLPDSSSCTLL

OST-2 (Pharmingen), mouse monoclonal antibody that recognizes rat MadCam-1
percent of injected dose localized to the pancreas (5 µg dose, 6 hours) (% of injected dose) [1]: 3
percent of injected dose in the small intestine (5 µg dose, 6 hours) (% of injected dose) [2]: > 5

OX-61 (Pharmingen), mouse monoclonal antibody specific for DPP-4
percent of injected dose localized in the lungs (5 µg dose, 30 minutes) (% of injected dose) [3]: 15
percent of injected dose localized in the lungs (5 µg dose, 6 hours) (% of injected dose) [3]: 7
antibody per gram of lung tissue (5 µg dose, 5 minutes) (µg per gram of tissue) [4]: > 0.4
antibody per gram of lung tissue (5 µg dose, 8 hours) (µg per gram of lung tissue) [4]: 0.7
percent of injected dose localized in the lung (1 µg dose, 2 hours) (% of injected dose) [4]: 22
percent of injected dose localized in the lung (1 µg dose, 8 hours) (% of injected dose) [4]: 30
percent of injected dose localized in the lung (5 µg dose, 5 minutes) (% of the initial antibody dose) [4]: 20
